The source of these data is patent publication US20230125690A1 (KYUNGPOOK NATIONAL UNIVERSITY INDUSTRY ACADEMIC COOPERATION …, published 2023).

*1 amine or outer side, *2 acyl side, *3 side chain or, on linkers, in order; H or OH if unused. Where no end group is shown, it is not given here. [ ]: non-standard residue; d: D form. Sac = acetylated serine, O-acetyl-L-serine, CC(=O)OC[C@H](N[*:1])C(=O)[*:2]

Assay [1] deals with T1, acetylated peptide GCPFTSacFSVPD (SEQ ID NO: 4) including acetylated S565 residue of COX2 (human).
T1 peptide: GCPFT[Sac]FSVPD
Put plainly: ELISA, plate coated with antibody, peptide captured, biotinylated COX2 antibody detection. For orientation: In an ELISA, binding on a coated surface is turned into a signal by an enzyme label.

The target of assay [2] is T2, human COX2 (cyclooxygenase 2) protein with acetylated S565 residue (human, UniProt P35354 18-604, acetylated serine at S565).
T2 construct: Endogenous protein in RIPA lysates of human microglia and human PBMCs, and in human brain tissue sections; also called S565 acetylated COX2 protein; acetylated COX2 protein
T2 sequence: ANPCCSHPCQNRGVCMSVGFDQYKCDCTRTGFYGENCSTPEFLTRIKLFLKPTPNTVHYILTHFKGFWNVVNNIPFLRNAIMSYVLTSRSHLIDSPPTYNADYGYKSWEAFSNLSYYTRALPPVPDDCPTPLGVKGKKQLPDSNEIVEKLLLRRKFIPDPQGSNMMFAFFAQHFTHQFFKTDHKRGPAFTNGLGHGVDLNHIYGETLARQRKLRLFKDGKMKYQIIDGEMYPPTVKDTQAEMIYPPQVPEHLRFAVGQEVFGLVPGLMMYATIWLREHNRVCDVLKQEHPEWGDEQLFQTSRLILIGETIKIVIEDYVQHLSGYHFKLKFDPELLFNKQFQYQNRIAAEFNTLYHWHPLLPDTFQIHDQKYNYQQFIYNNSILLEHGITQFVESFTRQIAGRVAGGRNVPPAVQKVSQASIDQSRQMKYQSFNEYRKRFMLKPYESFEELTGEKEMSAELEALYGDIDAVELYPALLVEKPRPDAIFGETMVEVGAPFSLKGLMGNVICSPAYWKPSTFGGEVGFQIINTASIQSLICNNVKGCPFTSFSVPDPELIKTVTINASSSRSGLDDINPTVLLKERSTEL
Put plainly: sandwich ELISA on human PBMC lysates, plate coated with 44C7C8. How it is done: The sample preparation was performed according to the following procedure. After collecting mouse and human blood, the blood was transferred to a heparin tube and reacted for 30 minutes. The reacted blood was placed on the same amount of Histopaque (sigma, 10771) and centrifuged (400 g, 30 minutes). After centrifugation, a middle PBMC layer was separated and washed. After washing, the PBMCs were lysed by adding an RIPA solution (Cell signaling, 9806S), and then the cell lysate was centrifuged (13,000×g, 10 minutes) to obtain a supernatant, and then the amount of protein was quantified and ELISA assay was performed using 100 μg/ml of protein.
After the plate was washed with PBS/Tween, 300 μl/well of a blocking solution was applied at RT for 1 hour. 50 μl of a PBMC sample (100 μg/ml) was treated and incubated at RT for 2 hours. […] After the final washing, the detection was performed with TMB (3-3′,5,5′-tetramethylbenzidine) ([…] substrate for HRP) and the plate was read at 405 nm using an ELISA plate reader. A standard curve was obtained by step-diluting the peptide (500 μg/ml) of SEQ ID NO: 3 or SEQ ID NO: 4, and the amount of COX2 protein acetylated in S565 residue was calculated by substituting an optical density (O.D.) value obtained from the sample to the Standard curve.

For assay [3], the target named is T3, acetylated peptide PFTSacFSVPDPELI (SEQ ID NO: 3) including acetylated S565 residue of COX2 (human).
T3 peptide: PFT[Sac]FSVPDPELI
Put plainly: ELISA, 96-well plate coated with 9F7-2, peptide captured, biotinylated COX2 antibody detection.

Assay [4] addresses T2, human COX2 (cyclooxygenase 2) protein …. Put plainly: sandwich ELISA on human microglia lysates, plate coated with 9F7-2.

B1: monoclonal antibody 44C7C8 (antibody, V domains shown)
VH: DVQLQESGPGLVKPSQSLSLTCSVTGYSITSGYYWNWIRQFPGNKLEWMGYISYDGSNNYNPSLKNRISITRDTYKKQFFLKLNSVTTEDTATYYCARGADYYGNTYFYFDVWGAGTTVTVSS
VL: DIVMSQSPSSLAVSVEEKVNMSCKSSQSLLYSRNQKNYLAWYQQKPGQSPKLLIYWASTRESGVPDRFTGSGAGTDFTLTISSVKAEDLAVYYCQQYYTYPFTFGSGTKLEIK
notes: the isotype and constant regions are not; The methods call it 44C7F5 or 44C75F and the results call it 44C7C8; also called 44C7F5; 44C75F
Turning to B1, the binding result in assay [1] and in assay [2] was “binds” in each case.

B2: monoclonal antibody 9F7-2 (antibody, V domains shown)
VH: QVQLQQSGAELVRPGTSVKISCKASGYTFTDYLLGWVKQRPGHGLEWIGDIYPGGTYIKYNEKFKGKATLTADTSSSTAYMQLSSLTSEDSAVYFCARGRNDEKGDYWGQGTSVTVSS
VL: DVLMTQTPLSLPVSLGDQASISCRSSQSIVHRNGFTYLEWYLQKPGQSPKLLIYQVSNRFSGVPDRFSGSGSGTDFTLKISRVEAEDLGVYYCFQGSHVPPTFGGGTKLEIK
notes: Clones were screened for IgG expression; the isotype and constant regions are not
For the molecule B2, the binding result in assay [3] and in assay [4] was “binds” throughout.
